From paper PMC4051777, “Characterization of an Alkali- and Halide-Resistant Laccase Expressed in E. coli: CotA from Bacillus clausii” (PLoS ONE, 2014)

Key:
[1] = substrate: COc1cccc(OC)c1O; test: purified protein; assay type: biochemical, Shouchella clausii; settings: pH 7 (implied by context), O2 as co-substrate, DMP 0-12.5 mM, substrate inhibition at high DMP
[2] = substrate: COc1cccc(OC)c1O; test: purified protein; assay type: biochemical, Bacillus subtilis; settings: pH 7, O2 as co-substrate, DMP 0-12.5 mM, substrate inhibition at high DMP

B1: cotA from B. clausii (Shouchella clausii KSM-K16) (protein)
chain: MELEKFVDPMPIMKTAIPKKTSKDGDYYEIEMKEFSQKLHRDLNPTRLWGYDGQFPGPTIEVMRGKPARIKWMNNLPDTHFLPIDRSIHHVAHEPEVRTVVHLHGSETTPASDGYPEAWFTKDFAEVGSFFEQETYEYPNDQRAATLWYHDHAMGITRLNVYAGLSGLYIIRDPREEQLNLPKGEFDIPLLIQDRSFNDDGSLFYPAQPANPAPNLPNPSVLPFFVGDTILVNGKVWPYLQVEPRKYRFRILNGSNSRSYQLALDSEAPFYQIASDGGLLRRTVSLQAFDIRPAERIEAIIDFSKFEGQTITLKNNASTDATADVMQFQVVLPLSGEDTSIIPQNLSYIPSLQQNDVKRIRNLKISGTTDEYGRPLLLLNNKLWSDPVEEKPCLGTTEIWSFVNVTNVPHPMHIHLVQFQLLDHRAFNVELYNENGQIELVGPTIPPKINERGWKDTITAPAGQITRVIARFAPFSGYYVWHCHILEHEDYDMMRPFVVIDPKTEKERR
notes: full length, codon-optimized gene in pETM13 (p133), E. coli BL21(DE3)
Q: For B1, which Km [1] is on record?
A: 1.02 mM

B2: cotA from B. subtilis (Bacillus subtilis subsp. subtilis str. 168) (protein)
chain: MTLEKFVDALPIPDTLKPVQQSKEKTYYEVTMEECTHQLHRDLPPTRLWGYNGLFPGPTIEVKRNENVYVKWMNNLPSTHFLPIDHTIHHSDSQHEEPEVKTVVHLHGGVTPDDSDGYPEAWFSKDFEQTGPYFKREVYHYPNQQRGAILWYHDHAMALTRLNVYAGLVGAYIIHDPKEKRLKLPSDEYDVPLLITDRTINEDGSLFYPSAPENPSPSLPNPSIVPAFCGETILVNGKVWPYLEVEPRKYRFRVINASNTRTYNLSLDNGGDFIQIGSDGGLLPRSVKLNSFSLAPAERYDIIIDFTAYEGESIILANSAGCGGDVNPETDANIMQFRVTKPLAQKDESRKPKYLASYPSVQHERIQNIRTLKLAGTQDEYGRPVLLLNNKRWHDPVTETPKVGTTEIWSIINPTRGTHPIHLHLVSFRVLDRRPFDIARYQESGELSYTGPAVPPPPSEKGWKDTIQAHAGEVLRIAATFGPYSGRYVWHCHILEHEDYDMMRPMDITDPHK
notes: full length, 1542-bp PCR product from genomic DNA in pETM13 (p130), E. coli BL21(DE3); no fusions or tailing amino acids
Q: B2 was tested. Which Km [2] did it give?
A: 0.34 mM
